The results in this text go back to US20230265185A1 (NATIONAL RESEARCH COUNCIL OF CANADA, published 2023).

This experiment addresses T1, recombinant extracellular domain of the predominant human CD22-beta isoform (CD22-ECD) (human, UniProt P20273 20-687, CHO-expressed glycoprotein. Capture on an SA chip implies biotinylation, but the patent does not state it for SPR.).
T1 construct: Expressed in CHO-3E7 cells, IMAC and SEC purified, monomeric fraction; Results say it was immobilized onto a CM5 dextran chip; also called human CD22-ECD; hCD22 ecto-domain
T1 sequence: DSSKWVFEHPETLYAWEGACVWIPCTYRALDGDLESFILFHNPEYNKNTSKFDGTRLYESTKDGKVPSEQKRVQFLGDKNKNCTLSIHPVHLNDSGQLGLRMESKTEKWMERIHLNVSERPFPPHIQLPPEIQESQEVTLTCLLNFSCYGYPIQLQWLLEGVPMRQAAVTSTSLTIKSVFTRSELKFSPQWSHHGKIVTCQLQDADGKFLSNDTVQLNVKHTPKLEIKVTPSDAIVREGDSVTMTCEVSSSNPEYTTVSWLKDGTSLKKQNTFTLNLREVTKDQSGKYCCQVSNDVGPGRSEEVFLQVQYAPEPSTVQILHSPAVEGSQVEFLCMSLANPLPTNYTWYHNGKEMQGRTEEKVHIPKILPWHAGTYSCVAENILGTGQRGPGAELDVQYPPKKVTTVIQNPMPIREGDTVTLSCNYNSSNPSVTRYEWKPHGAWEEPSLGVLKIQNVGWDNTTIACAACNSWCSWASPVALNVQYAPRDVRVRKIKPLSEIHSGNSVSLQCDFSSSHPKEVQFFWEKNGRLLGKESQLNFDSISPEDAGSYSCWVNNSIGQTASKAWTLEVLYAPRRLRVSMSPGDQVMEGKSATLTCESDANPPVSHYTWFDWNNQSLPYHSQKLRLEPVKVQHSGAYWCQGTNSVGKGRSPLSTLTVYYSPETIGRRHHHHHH
Put plainly: SPR, Biacore T200, VHH over immobilized CD22-ECD. As to the method:
For surface Plasmon resonance, 21 selected VHHs were passed though size exclusion columns, superdex 75 (GE Healthcare), respectively, in 10 mM HEPES, pH 7.4, containing 150 mM NaCl, 3 mM EDTA, monomeric sdAb fractions were collected and protein concentrations were determined by measuring absorbance at 280 nm (A280). Analysis were performed with Biacore T200 instrument (GE Healthcare). All measurements were carried out at 25° C. in 10 mM HEPES, pH 7.4, containing 150 mM NaCl, 3 mM EDTA and 0.005% surfactant P20 (GE Healthcare). Approximately 1919 RUs of the recombinant monomeric CD22-ECD (obtained after SEC purification of the CD22-ECD) were captured on SA sensor chip (GE Healthcare) at a flow rate of 5 uL/min. Various concentration of the monomeric VHHs were injected over CD22-ECD surface, respectively using an SA surface as a reference at a flow rate of 40 µL/min. Surfaces were generated by washing with running buffer. Data were analysed with BIAevaluation 4.1 software.
The monomeric fraction of all 21 VHHs were used for SPR experiment where the human CD22-ECD was immobilized onto the CM5 dextran chip and various VHH concentration (0.6-400 nM) were passed over the sensor chip. […] All of the data collected fit a 1:1 binding model.
On the technique in general: In SPR one partner is held on a chip, and binding of the other changes the refractive index at the surface.

B1: hCD221ug-77 (VHH)
VHH: QVKLEESGGGLVQPGGSLRLSCADSGSIFRIAVMNWYRQAPGKERELVAVITSGGETHYAASVKGRFTISRDNAKNTMYLQMNSLKPEDTAVYYCNAKWGQYEYWGQGTQVTVSS
modifications: single biotin at the VHH C-terminal (biotinylation signal sequence)
notes: llama VHH, expressed in E. coli TG1, IMAC purified, monomeric SEC fraction; also called VHH # 8
Take B1: the Kd (usually a measure of binding affinity in units of concentration) stood at 4.77 nM; the koff (commonly the rate constant with which the complex falls apart) was 0.00262 s⁻¹; the kon – broadly, the second-order rate constant of association – is 550000 M⁻¹ s⁻¹.

B2: hCD221ug-87 (VHH)
VHH: QVQLVESGGGLVQPGGSLRLSCADSGSIFRIAVMNWYRQAPGKERELVAVITSGGETHYAASVKGRFTISRDNAKNTMYLQMNSLKPEDTAVYYCNAKWGRDEYWGQGTQVTVSS
modifications: single biotin at the VHH C-terminal (biotinylation signal sequence)
notes: llama VHH, expressed in E. coli TG1, IMAC purified, monomeric SEC fraction; also called VHH # 9
As to B2, the Kd was 0.647 nM, the koff amounted to 0.000797 s⁻¹ and the kon is 1.23e+06 M⁻¹ s⁻¹.

B3: hCD221ug-75 (VHH)
VHH: QVKLEESGGGLVQPGGSLRLSCAGSGSIFRIAVMNWYRQAPGKERELVAVITSGGDTHYAASVKGRFTISRDNAKNTMYLQINSLKPEDTAVYYCNAKYGRDEYWGQGAQVTVSS
modifications: single biotin at the VHH C-terminal (biotinylation signal sequence)
notes: llama VHH, expressed in E. coli TG1, IMAC purified, monomeric SEC fraction; also called VHH # 10
For B3, the Kd is 0.865 nM, the koff is 0.00121 s⁻¹ and the kon was 1.4e+06 M⁻¹ s⁻¹.

B4: hCD221ug-93 (VHH)
VHH: QVKLEESGGGLVQAGGSLRLSCAASGSTFSSSVMNWYRQAPGKQRELVAVITSSGSTHYADSVKGRFTISRDNAKNTVNLQMNSLKPEDTAVYYCNAQYGRRSDWGQGTQVTVSS
modifications: single biotin at the VHH C-terminal (biotinylation signal sequence)
notes: llama VHH, expressed in E. coli TG1, IMAC purified, monomeric SEC fraction; also called VHH # 11
Consider B4, for which the equilibrium dissociation constant (Kd) was determined as 7.7 nM, the koff worked out at 0.0105 s⁻¹ and the kon was determined as 1.36e+06 M⁻¹ s⁻¹.

B5: hCD22pas-16 (VHH)
VHH: QVQLVESGGGLVQAGGSLRLSCAASGSTFSLKAMAWYRQAPGKQRERVGVINSDGSYTTDAASVQGRFTISRDNAKNTVYLQMNSLKPEDTAVYYCNTMPPWPWGQGTQVTVSS
modifications: single biotin at the VHH C-terminal (biotinylation signal sequence)
notes: llama VHH, expressed in E. coli TG1, IMAC purified, monomeric SEC fraction; also called VHH # 20
With B5, the Kd was found to be 2.75 nM, the off-rate constant (koff) was determined as 0.001 s⁻¹ and the kon is 365000 M⁻¹ s⁻¹.

B6: hCD22pas-79 (VHH)
VHH: QVKLEESGGGLVQPGGSLRLSCTVSGRTSSVYGMAWFRQTPGKEREFVAAMSWSGGPTYFADSVKGRFGSSRDNAKNTVYLQMNGLRPEDTAVYYCAVRIRRTLLEPLTKETLYDYWGQGTQVTVSS
modifications: single biotin at the VHH C-terminal (biotinylation signal sequence)
notes: llama VHH, expressed in E. coli TG1, IMAC purified, monomeric SEC fraction; also called VHH # 18
For the molecule B6, the Kd was 7.72 nM, the koff came out at 0.00397 s⁻¹ and the kon was 514000 M⁻¹ s⁻¹.

B7: hCD221ug-14 (VHH)
VHH: QVKLEESGGGLVQAGGSLRLSCAVSGRIFRSYVLGWFRQAPGKERELVARIGWSDTYYADSVKGRFTISRDNAKNTVDLQMNSLKPEDTAVYYCAANSPPYGPQRDEFDYWGQGTQVTVSS
modifications: single biotin at the VHH C-terminal (biotinylation signal sequence)
notes: llama VHH, expressed in E. coli TG1, IMAC purified, monomeric SEC fraction; also called VHH # 16; 9-hCD22 1ug-14
Regarding B7, the Kd amounted to 0.00684 nM, the koff is 2.1e-05 s⁻¹ and the kon came to 3.07e+06 M⁻¹ s⁻¹.

B8: hCD221ug-6 (VHH)
VHH: QVQLVESGGGVVRPGDSLRLSCTVSGFTLDYYVMGWFRQAPGKEREVVSCISSSDGVTYYADSVKGRFTISRDNAKNTVYLQMNSLKPEDTAIYYCAVDKPFYDGGYYYTCPVDFDSWGQGTQVTVSS
modifications: single biotin at the VHH C-terminal (biotinylation signal sequence)
notes: llama VHH, expressed in E. coli TG1, IMAC purified, monomeric SEC fraction; also called VHH # 5
For B8, the Kd amounted to 2.41 nM, the koff came out at 0.000129 s⁻¹ and the kon is 53600 M⁻¹ s⁻¹.

B9: hCD22pas-10 (VHH)
VHH: QVQLVESGGGLVQPGDSLRLSCTVSGFTSDYYAMGWFRQAPGKEREAVSCISSSDGVTYYADSVRGRFTISRDNAKNTVYLEMNSLKPEDTAIYYCAVDKPFYDGGYLYTCPVDFDSWGQGTQVTVSS
modifications: single biotin at the VHH C-terminal (biotinylation signal sequence)
notes: llama VHH, expressed in E. coli TG1, IMAC purified, monomeric SEC fraction; also called VHH # 6
In the case of B9, the Kd is 19 nM, the koff amounted to 0.00289 s⁻¹ and the kon amounted to 152000 M⁻¹ s⁻¹.

B10: hCD22100ng-2 (VHH)
VHH: QVKLEESGGGLVQPGGSLRLSCTVSGVTFDYYVMGWFRQAPGKEREVVSCMRNSDGVTYYADSVKGRFTISRDNAKNTVYLQMNSLKPDDTAIYYCAVDKPFYDGGNYYTCPVDFDSWGQGTQVTVSS
modifications: single biotin at the VHH C-terminal (biotinylation signal sequence)
notes: llama VHH, expressed in E. coli TG1, IMAC purified, monomeric SEC fraction; also called VHH # 2
Take B10: the Kd came to 2.78 nM, the off-rate constant (koff) worked out at 0.00013 s⁻¹ and the kon was determined as 46800 M⁻¹ s⁻¹.

B11: hCD22100ng-66 (VHH)
VHH: QVQLVESGGGLVQPGGSLRLSCTVSGFSLDYYVMGWFRQAPGKEREVVSCISSSDGATYYPDSVKGRFTISRDNAKKTVYLQMNALKPEDTAIYYCAVDKPFYDGGSYYTCPVDFGSWGQGTQVTVSS
modifications: single biotin at the VHH C-terminal (biotinylation signal sequence)
notes: llama VHH, expressed in E. coli TG1, IMAC purified, monomeric SEC fraction; also called VHH # 4
For B11, the Kd is 0.924 nM, the koff was 0.000134 s⁻¹ and the kon stood at 145000 M⁻¹ s⁻¹.

B12: hCD221ug-74 (VHH)
VHH: QVKLEESGGGLVQAGGSLRLSCAGSGFTFDDYAMGWFRQAPGKEREVVSCMGSSDGATYYADSVKGRFTISRDNAKNTVYLQMNSLKPEDTAIYYCAVDKPFYDGGYRYTCPVDFGSWGQGTQVTVSS
modifications: single biotin at the VHH C-terminal (biotinylation signal sequence)
notes: llama VHH, expressed in E. coli TG1, IMAC purified, monomeric SEC fraction; also called VHH # 3
On to B12, for which the Kd was 7.08 nM, the koff was 0.000655 s⁻¹ and the kon was 92500 M⁻¹ s⁻¹.

B13: hCD22pas-33 (VHH)
VHH: QVKLEESGGGLVQPGGSLRLSCTVSGFTLDSYVMGWFRQAPGKEREAVSCISSSDGVTYYADSVKGRFTISRDNAKNTYLQMNSLKPEDTAIYYCAVDKPFYDGGYLYTCPVDFDSWGQGIQVTVSS
modifications: single biotin at the VHH C-terminal (biotinylation signal sequence)
notes: llama VHH, expressed in E. coli TG1, IMAC purified, monomeric SEC fraction; also called VHH # 7
As for B13, the Kd was 2.6 nM, the koff worked out at 0.00014 s⁻¹ and the kon stood at 54000 M⁻¹ s⁻¹.
